According to the supplement of paper PMC10724198:
± gives the standard deviation of the averaged measurements.

Legend:
Saccharomyces cerevisiae [1] = test: protein stability index of tFT-peptide fusion (C-terminal peptide) (PSI (0-1 scale)); higher = more stable (slower turnover); settings: genetic background: wild type; temperature: 30 C
Saccharomyces cerevisiae [2] = test: as above
Experimental: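 MPS profiling in S. cerevisiae of the tFT-X12 degron library: putative degron peptides plus stable controls, 12 aa, fused to the C-terminus of a sfGFP-mCherry timer. Cells are FACS-sorted into 8 mCherry/sfGFP bins and deep-sequenced. PSI runs from 0 (unstable) to 1 (stable). Backgrounds are wild type, das1Δ and doa10Δ at 30 °C, and wild type, das1Δ, cdc34-1 and cdc53-1 at 37 °C; 2-3 technical replicates each.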

[3] = genetic background: cdc34-1, temperature: 37 C
[4] = genetic background: cdc53-1, temperature: 37 C
[5] = genetic background: das1 deletion, temperature: 30 C
[6] = genetic background: das1 deletion, temperature: 37 C
[7] = genetic background: doa10 deletion, temperature: 30 C
[8] = genetic background: wild type, temperature: 30 C
[9] = genetic background: wild type, temperature: 37 C
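Further: PSI is a weighted mean of sequencing reads over stability bins, variants kept only with over 10 reads, mCherry proximal and sfGFP distal, peptide attached via GGGS linker.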

Sequence | protein stability index (Saccharomyces cerevisiae [1]) | protein stability index (Saccharomyces cerevisiae [2]; [3]) | protein stability index (Saccharomyces cerevisiae [2]; [4]) | protein stability index (Saccharomyces cerevisiae [2]; [5]) | protein stability index (Saccharomyces cerevisiae [2]; [6]) | protein stability index (Saccharomyces cerevisiae [2]; [7]) | protein stability index (Saccharomyces cerevisiae [2]; [8]) | protein stability index (Saccharomyces cerevisiae [2]; [9])
GFLRTVHFLLLG | 0.354 ± 0.054 | 0.634 ± 0.1 | 0.675 ± 0.0077 | 0.575 ± 0.012 | 0.721 ± 0.037 | 0.225 ± 0.0044 | 0.251 ± 0.035 | 0.4702 ± 0.0038
GFNIFFFFFFFV | 0.326 ± 0.0089 | 0.21 ± 0.051 | 0.223 ± 0.035 | 0.202 ± 0.02 | 0.297 ± 0.019 | 0.281 ± 0.0099 | 0.173 ± 0.006 | 0.247 ± 0.021
GFPFLCSFLLAS | 0.382 ± 0.013 | 0.384 ± 0.0044 | 0.412 ± 0.0058 | 0.298 ± 0.04 | 0.472 ± 0.011 | 0.253 ± 0.005 | 0.291 ± 0.026 | 0.453 ± 0.005
GFPFLFILYFLC | 0.158 ± 0.019 | 0.161 ± 0.03 | 0.257 ± 0.013 | 0.224 ± 0.02 | 0.385 ± 0.0061 | 0.111 ± 0.0087 | 0.0763 ± 0.036 | 0.105 ± 0.0019
GGGAGVVWVRLG | 0.235 ± 0.035 | 0.5376 ± 0.0049 | 0.732 ± 0.022 | 0.642 ± 0.0084 | 0.7415 ± 0.0037 | 0.112 ± 0.0043 | 0.12 ± 0.027 | 0.166 ± 0.011
GGGVGGAVVLFW | 0.408 ± 0.013 | 0.651 ± 0.023 | 0.764 ± 0.029 | 0.527 ± 0.016 | 0.718 ± 0.0021 | 0.528 ± 0.01 | 0.565 ± 0.027 | 0.716 ± 0.0033
GGGWCVWMVWFG | 0.401 ± 0.024 | 0.482 ± 0.036 | 0.568 ± 0.0063 | 0.411 ± 0.03 | 0.595 ± 0.011 | 0.23 ± 0.006 | 0.261 ± 0.027 | 0.481 ± 0.036
GGIRLRVRFFVI | 0.247 ± 0.019 | 0.584 ± 0.061 | 0.658 ± 0.011 | 0.53 ± 0.026 | 0.6152 ± 0.0058 | 0.158 ± 0.0059 | 0.168 ± 0.023 | 0.236 ± 0.016
GGSGGVSWRRVV | 0.395 ± 0.022 | 0.68 ± 0.034 | 0.735 ± 0.0088 | 0.654 ± 0.011 | 0.725 ± 0.01 | 0.223 ± 0.019 | 0.264 ± 0.018 | 0.546 ± 0.051
GGSIKRFVILVL | 0.406 ± 0.022 | 0.416 ± 0.027 | 0.489 ± 0.0076 | 0.3 ± 0.044 | 0.525 ± 0.017 | 0.259 ± 0.006 | 0.304 ± 0.024 | 0.482 ± 0.027
GGSKIGFTVGGG | 0.721 ± 0.018 | 0.686 ± 0.024 | 0.741 ± 0.017 | 0.645 ± 0.013 | 0.738 ± 0.013 | 0.642 ± 0.018 | 0.664 ± 0.02 | 0.725 ± 0.0018
GGTGGAGSRGQI | 0.499 ± 0.099 | 0.641 ± 0.069 | 0.741 ± 0.01 | 0.6181 ± 0.0046 | 0.724 ± 0.02 | 0.644 ± 0.0041 | 0.657 ± 0.011 | 0.7316 ± 0.007
GGWFFWVGAWVV | 0.193 ± 0.0025 | 0.173 ± 0.005 | 0.346 ± 0.028 | 0.202 ± 0.026 | 0.3957 ± 0.0013 | 0.102 ± 0.018 | 0.121 ± 0.025 | 0.214 ± 0.0027
GGWRVLHAWVAV | 0.463 ± 0.015 | 0.651 ± 0.045 | 0.682 ± 0.012 | 0.546 ± 0.019 | 0.6866 ± 0.00041 | 0.278 ± 0.0058 | 0.328 ± 0.023 | 0.553 ± 0.023
GGYIINRWRTKN | 0.27 ± 0.052 | 0.566 ± 0.035 | 0.709 ± 0.022 | 0.622 ± 0.016 | 0.724 ± 0.052 | 0.113 ± 0.026 | 0.142 ± 0.021 | 0.273 ± 0.011
GILPIYNIISRL | 0.553 ± 0.28 | 0.9679 ± 0.0088 | 0.948 ± 0.019 | 0.842 ± 0.054 | 0.891 ± 0.013 | 0.568 ± 0.016 | 0.547 ± 0.1 | 0.84 ± 0.031
GITSFFSWSFLS | 0.237 ± 0.048 | 0.6014 ± 0.0038 | 0.7537 ± 0.0057 | 0.682 ± 0.064 | 0.782 ± 0.055 | 0.169 ± 0.015 | 0.172 ± 0.0065 | 0.366 ± 0.0087
GKWFSWNAIWIR | 0.145 ± 0.049 | 0.0949 ± 0.11 | 0.0354 ± 0.0075 | 0.101 ± 0.025 | 0.1 ± 0.02 | 0.6114 ± 0.0025 | 0.0762 ± 0.029 | 0.101 ± 0.046
GLCGVCLVRCVG | 0.338 ± 0.019 | 0.3008 ± 0.00051 | 0.412 ± 0.024 | 0.275 ± 0.031 | 0.478 ± 0.0052 | 0.211 ± 0.0051 | 0.249 ± 0.036 | 0.393 ± 0.0046
GLGMVIIGLLIG | 0.354 ± 0.022 | 0.176 ± 0.011 | 0.342 ± 0.09 | 0.224 ± 0.032 | 0.432 ± 0.042 | 0.191 ± 0.0035 | 0.227 ± 0.01 | 0.387 ± 0.0056
